In patent US20170355766A1 (Xencor, published 2017):
Positions count from the first letter of the chain named. In names and notes the source's numbering stands.

T1: human H131 FcγRIIa receptor protein (6xHis and GST tags) (human, UniProt P12318 34-217, limits assumed)
T1 construct: also called HIIa
T1 sequence (looked up): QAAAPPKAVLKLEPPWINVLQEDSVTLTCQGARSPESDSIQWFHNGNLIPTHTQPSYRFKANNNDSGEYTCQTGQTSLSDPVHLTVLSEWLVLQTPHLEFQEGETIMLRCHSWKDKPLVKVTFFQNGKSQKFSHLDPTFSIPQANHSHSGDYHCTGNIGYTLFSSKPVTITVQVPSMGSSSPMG

T2: human FcγRIIb receptor protein (R&D Systems) (human, UniProt P31994 46-217)
T2 construct: Analyte injected over antibodies captured on a protein A/G chip (Biacore); also called CD32b
T2 sequence (looked up): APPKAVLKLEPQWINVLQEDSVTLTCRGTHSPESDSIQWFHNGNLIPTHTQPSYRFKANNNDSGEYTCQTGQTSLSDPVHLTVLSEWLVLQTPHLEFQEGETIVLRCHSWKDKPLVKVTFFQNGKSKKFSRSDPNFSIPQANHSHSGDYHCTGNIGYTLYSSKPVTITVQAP

T3: FcγRIIaR (human, UniProt P12318)
T3 construct: recombinant receptor protein with 6xHis and GST tags; also called R131 FcγRIIa
T3 sequence (receptor, looked up): T1 sequence (looked up) with H134R

B1: A327D (antibody, human IgG1, kappa)
heavy: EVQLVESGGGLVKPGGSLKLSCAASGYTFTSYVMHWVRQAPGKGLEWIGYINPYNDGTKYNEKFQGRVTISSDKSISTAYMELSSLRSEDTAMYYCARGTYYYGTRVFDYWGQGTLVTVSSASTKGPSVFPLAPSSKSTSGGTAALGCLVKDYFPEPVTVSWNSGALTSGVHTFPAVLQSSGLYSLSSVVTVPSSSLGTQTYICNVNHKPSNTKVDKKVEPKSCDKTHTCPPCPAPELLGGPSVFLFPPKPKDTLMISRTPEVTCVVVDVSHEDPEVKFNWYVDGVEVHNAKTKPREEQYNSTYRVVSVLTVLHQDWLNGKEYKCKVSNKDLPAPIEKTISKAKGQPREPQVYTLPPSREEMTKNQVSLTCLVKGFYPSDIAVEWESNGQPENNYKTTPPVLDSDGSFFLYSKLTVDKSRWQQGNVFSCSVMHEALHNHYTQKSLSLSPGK
light: DIVMTQSPATLSLSPGERATLSCRSSKSLQNVNGNTYLYWFQQKPGQSPQLLIYRMSNLNSGVPDRFSGSGSGTEFTLTISSLEPEDFAVYYCMQHLEYPITFGAGTKLEIKRTVAAPSVFIFPPSDEQLKSGTASVVCLLNNFYPREAKVQWKVDNALQSGNSQESVTEQDSKDSTYSLSSTLTLSKADYEKHKVYACEVTHQGLSSPVTKSFNRGEC
notes: HuAM4G7 IgG1 Fc variant
B2: S267D (antibody, human IgG1, kappa)
heavy: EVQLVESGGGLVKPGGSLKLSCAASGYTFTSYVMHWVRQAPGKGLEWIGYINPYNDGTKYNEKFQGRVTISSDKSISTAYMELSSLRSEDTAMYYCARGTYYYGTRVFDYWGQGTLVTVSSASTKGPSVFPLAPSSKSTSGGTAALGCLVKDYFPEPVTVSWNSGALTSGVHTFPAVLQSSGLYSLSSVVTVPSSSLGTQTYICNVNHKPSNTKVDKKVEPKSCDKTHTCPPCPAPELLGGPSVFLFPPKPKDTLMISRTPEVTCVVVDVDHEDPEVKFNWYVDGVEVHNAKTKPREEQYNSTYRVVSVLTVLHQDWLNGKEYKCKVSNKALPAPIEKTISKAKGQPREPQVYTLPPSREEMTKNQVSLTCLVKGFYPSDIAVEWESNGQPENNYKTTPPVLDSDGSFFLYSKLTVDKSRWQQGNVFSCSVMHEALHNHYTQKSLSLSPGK
light: B1 light
notes: HuAM4G7 IgG1 Fc variant
B3: S239E (antibody, human IgG1, kappa)
heavy: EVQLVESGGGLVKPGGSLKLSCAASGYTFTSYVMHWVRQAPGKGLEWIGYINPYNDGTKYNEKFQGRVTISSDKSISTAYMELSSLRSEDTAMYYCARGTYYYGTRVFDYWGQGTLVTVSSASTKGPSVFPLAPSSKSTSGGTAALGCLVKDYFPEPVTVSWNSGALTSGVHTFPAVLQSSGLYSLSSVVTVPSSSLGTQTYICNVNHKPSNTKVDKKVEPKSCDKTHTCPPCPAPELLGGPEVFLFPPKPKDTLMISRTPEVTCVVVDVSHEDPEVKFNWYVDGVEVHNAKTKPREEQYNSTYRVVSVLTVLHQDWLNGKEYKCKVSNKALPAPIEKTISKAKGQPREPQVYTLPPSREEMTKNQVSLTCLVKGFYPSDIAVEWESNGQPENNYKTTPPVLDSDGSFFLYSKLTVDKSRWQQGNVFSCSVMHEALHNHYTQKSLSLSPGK
light: B1 light
notes: HuAM4G7 IgG1 Fc variant
B4: G236D/S267E/H268E (antibody, human IgG1, kappa)
heavy: EVQLVESGGGLVKPGGSLKLSCAASGYTFTSYVMHWVRQAPGKGLEWIGYINPYNDGTKYNEKFQGRVTISSDKSISTAYMELSSLRSEDTAMYYCARGTYYYGTRVFDYWGQGTLVTVSSASTKGPSVFPLAPSSKSTSGGTAALGCLVKDYFPEPVTVSWNSGALTSGVHTFPAVLQSSGLYSLSSVVTVPSSSLGTQTYICNVNHKPSNTKVDKKVEPKSCDKTHTCPPCPAPELLDGPSVFLFPPKPKDTLMISRTPEVTCVVVDVEEEDPEVKFNWYVDGVEVHNAKTKPREEQYNSTYRVVSVLTVLHQDWLNGKEYKCKVSNKALPAPIEKTISKAKGQPREPQVYTLPPSREEMTKNQVSLTCLVKGFYPSDIAVEWESNGQPENNYKTTPPVLDSDGSFFLYSKLTVDKSRWQQGNVFSCSVMHEALHNHYTQKSLSLSPGK
light: B1 light
notes: HuAM4G7 IgG1 Fc variant
B5: S267A (antibody, human IgG1, kappa)
heavy: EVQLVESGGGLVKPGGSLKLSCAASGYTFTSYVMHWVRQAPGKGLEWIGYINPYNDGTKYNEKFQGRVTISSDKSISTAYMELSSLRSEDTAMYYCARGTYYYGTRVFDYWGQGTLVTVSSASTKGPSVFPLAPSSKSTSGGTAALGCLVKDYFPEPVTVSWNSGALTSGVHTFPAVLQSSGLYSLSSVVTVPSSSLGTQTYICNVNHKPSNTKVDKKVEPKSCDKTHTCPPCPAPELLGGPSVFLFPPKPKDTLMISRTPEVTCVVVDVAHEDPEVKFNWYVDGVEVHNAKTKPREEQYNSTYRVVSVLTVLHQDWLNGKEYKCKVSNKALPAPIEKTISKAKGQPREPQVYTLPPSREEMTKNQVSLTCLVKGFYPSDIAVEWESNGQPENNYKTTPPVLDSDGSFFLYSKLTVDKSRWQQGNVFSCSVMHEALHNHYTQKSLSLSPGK
light: B1 light
notes: HuAM4G7 IgG1 Fc variant
B6: G236T (antibody, human IgG1, kappa)
heavy: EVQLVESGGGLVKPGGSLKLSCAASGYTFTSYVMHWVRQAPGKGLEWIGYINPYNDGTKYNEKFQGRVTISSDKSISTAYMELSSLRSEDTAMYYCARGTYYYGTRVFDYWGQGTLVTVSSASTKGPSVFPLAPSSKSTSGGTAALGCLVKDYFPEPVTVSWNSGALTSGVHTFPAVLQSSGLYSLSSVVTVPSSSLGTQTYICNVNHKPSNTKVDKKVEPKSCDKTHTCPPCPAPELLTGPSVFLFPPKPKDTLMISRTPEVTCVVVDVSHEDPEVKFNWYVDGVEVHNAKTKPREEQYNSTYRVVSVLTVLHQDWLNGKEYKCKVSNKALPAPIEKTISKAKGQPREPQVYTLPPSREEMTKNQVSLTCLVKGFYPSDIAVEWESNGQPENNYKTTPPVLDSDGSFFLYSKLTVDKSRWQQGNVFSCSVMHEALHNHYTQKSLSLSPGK
light: B1 light
notes: HuAM4G7 IgG1 Fc variant
B7: G237N/S267E (antibody, human IgG1, kappa)
heavy: not shown
light: B1 light
notes: HuAM4G7 IgG1 Fc variant
B8: G236D/S239D/S267E (antibody, human IgG1, kappa)
heavy: B4 heavy with S243D, E272H
light: B1 light
notes: HuAM4G7 IgG1 Fc variant
B9: G237A (antibody, human IgG1, kappa)
heavy: not shown
light: B1 light
notes: HuAM4G7 IgG1 Fc variant
B10: G236N/S267E (antibody, human IgG1, kappa)
heavy: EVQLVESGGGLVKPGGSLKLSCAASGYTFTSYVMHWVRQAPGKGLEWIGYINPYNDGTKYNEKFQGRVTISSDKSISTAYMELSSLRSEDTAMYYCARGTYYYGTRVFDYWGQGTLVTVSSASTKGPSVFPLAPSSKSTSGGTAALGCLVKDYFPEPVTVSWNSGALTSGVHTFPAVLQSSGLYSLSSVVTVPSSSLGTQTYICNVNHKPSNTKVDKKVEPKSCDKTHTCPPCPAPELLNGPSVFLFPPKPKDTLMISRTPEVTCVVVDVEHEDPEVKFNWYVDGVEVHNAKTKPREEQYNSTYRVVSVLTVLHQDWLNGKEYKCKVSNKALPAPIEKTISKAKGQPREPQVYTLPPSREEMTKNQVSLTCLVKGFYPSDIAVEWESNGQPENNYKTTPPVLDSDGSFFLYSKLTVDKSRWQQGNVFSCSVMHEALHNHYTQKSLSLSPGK
light: B1 light
notes: HuAM4G7 IgG1 Fc variant
B11: S239D/S267E/L328F (antibody, human IgG1, kappa)
heavy: B4 heavy with D240G, S243D, E272H, L332F
light: B1 light
notes: HuAM4G7 IgG1 Fc variant
B12: anti-CD19 antibody HuAM4G7 IgG1 Fc variant S239D/S267E (antibody)
heavy: not shown
light: B1 light
notes: Positions are EU numbers, not positions on the UniProt entry; copies: 2 + 2
B13: S267E/L328Y (antibody, human IgG1, kappa)
heavy: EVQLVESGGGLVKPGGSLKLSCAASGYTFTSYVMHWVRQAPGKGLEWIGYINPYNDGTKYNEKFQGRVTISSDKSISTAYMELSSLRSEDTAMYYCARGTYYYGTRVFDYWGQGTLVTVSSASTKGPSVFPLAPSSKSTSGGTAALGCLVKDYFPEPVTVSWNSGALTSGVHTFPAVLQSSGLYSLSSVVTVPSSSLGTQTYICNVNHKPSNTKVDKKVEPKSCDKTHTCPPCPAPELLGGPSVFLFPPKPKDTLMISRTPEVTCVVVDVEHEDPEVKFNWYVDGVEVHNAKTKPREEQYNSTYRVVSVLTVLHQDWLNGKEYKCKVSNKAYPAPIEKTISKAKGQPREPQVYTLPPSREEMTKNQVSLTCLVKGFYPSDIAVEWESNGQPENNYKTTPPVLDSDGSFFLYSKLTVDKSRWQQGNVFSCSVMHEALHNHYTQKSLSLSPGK
light: B1 light
notes: HuAM4G7 IgG1 Fc variant
B14: V266M (antibody, human IgG1, kappa)
heavy: not shown
light: B1 light
notes: HuAM4G7 IgG1 Fc variant
B15: L234D/S267E (antibody, human IgG1, kappa)
heavy: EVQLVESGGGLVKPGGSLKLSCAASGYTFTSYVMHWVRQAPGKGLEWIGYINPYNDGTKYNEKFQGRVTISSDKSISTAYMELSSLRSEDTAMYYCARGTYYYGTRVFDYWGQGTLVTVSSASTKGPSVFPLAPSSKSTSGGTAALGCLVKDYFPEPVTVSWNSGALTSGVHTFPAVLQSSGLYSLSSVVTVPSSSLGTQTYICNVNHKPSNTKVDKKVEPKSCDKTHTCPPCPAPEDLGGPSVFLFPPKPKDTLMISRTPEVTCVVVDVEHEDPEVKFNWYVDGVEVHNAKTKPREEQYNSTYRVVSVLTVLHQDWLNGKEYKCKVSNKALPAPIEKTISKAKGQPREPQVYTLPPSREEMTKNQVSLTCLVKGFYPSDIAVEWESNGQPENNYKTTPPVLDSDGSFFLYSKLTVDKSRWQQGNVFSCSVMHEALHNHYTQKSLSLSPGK
light: B1 light
notes: HuAM4G7 IgG1 Fc variant
B16: A327N (antibody, human IgG1, kappa)
heavy: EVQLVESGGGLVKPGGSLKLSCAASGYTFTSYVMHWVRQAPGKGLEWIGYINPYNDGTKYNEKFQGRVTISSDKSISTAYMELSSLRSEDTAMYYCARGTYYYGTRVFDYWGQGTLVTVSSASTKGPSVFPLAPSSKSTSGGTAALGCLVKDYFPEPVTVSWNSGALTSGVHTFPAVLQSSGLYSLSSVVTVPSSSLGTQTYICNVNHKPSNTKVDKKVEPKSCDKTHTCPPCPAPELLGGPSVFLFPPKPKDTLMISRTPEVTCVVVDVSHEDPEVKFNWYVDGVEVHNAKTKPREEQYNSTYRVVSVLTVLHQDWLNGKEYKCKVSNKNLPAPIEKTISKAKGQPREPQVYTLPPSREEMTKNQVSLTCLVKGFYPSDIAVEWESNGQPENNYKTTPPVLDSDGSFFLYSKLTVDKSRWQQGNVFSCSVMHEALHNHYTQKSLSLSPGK
light: B1 light
notes: HuAM4G7 IgG1 Fc variant
B17: G236D/S267E/L328F (antibody, human IgG1, kappa)
heavy: B4 heavy with E272H, L332F
light: B1 light
notes: HuAM4G7 IgG1 Fc variant
B18: G236S (antibody, human IgG1, kappa)
heavy: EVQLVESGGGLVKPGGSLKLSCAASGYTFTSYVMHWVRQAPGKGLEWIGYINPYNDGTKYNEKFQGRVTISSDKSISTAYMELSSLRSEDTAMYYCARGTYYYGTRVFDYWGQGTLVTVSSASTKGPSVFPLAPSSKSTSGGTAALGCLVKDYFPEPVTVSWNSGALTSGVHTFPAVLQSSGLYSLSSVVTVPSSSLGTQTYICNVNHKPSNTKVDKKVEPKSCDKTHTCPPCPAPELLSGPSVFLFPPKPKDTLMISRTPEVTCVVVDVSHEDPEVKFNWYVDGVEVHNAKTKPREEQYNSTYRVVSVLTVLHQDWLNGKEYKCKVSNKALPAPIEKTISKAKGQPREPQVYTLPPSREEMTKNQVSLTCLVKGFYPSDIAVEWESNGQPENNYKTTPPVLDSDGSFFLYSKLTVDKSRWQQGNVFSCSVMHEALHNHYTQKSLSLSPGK
light: B1 light
notes: HuAM4G7 IgG1 Fc variant
B19: S267E/H268E/L328F (antibody, human IgG1, kappa)
heavy: B4 heavy with D240G, L332F
light: B1 light
notes: HuAM4G7 IgG1 Fc variant

Target: T4, human V158 FcγRIIIa receptor protein (6xHis and GST tags) (human, UniProt P08637 17-208, limits assumed)
T4 construct: also called VIIIa
T4 sequence (P08637 17-208 F176V limits assumed): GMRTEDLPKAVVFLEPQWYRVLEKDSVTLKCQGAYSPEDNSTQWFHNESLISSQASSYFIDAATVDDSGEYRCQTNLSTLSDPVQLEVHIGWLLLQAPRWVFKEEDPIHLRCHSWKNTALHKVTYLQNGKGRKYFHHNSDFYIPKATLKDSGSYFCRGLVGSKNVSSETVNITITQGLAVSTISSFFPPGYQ
Experiment: SPR (Biacore)

Binder	Fold FcγRIIIaV	binding result
B1	0.398 fold	–
B2	1.51 fold	–
B3	3.49 fold	–
B4	–	no binding
B5	0.952 fold	–
B6	–	no binding
B7	–	no binding
B8	–	no binding
B9	–	no binding
B10	–	no binding
B11	0.216 fold	–
B12	3.74 fold	–
B13	–	no binding
B14	0.547 fold	–
B15	0.14 fold	–
B16	–	no binding
B17	–	no binding

Target: T5, human FcγRI receptor protein (R&D Systems) (human, UniProt P12314 16-288)
T5 construct: also called CD64
Experiment: SPR (Biacore)

Binder	Fold FcγRI
B1	2.06 fold
B2	2.11 fold
B3	1.65 fold
B4	0.0902 fold
B5	1.15 fold
B6	0.0157 fold
B7	0.101 fold
B8	0.0685 fold
B9	0.0108 fold
B10	0.0355 fold
B11	1.45 fold
B12	23.2 fold
B13	0.224 fold
B14	1.25 fold
B18	0.0268 fold
B15	0.0286 fold
B16	0.0279 fold
B17	0.0736 fold
B19	0.991 fold

Target: T1, human H131 FcγRIIa receptor protein …
Experiment: SPR (Biacore)

Binder	Fold FcγRIIaH	binding result
B1	0.733 fold	–
B4	0.103 fold	–
B6	0.486 fold	–
B8	0.217 fold	–
B9	–	no binding
B10	–	no binding
B18	3.76 fold	–
B16	–	no binding
B17	0.0301 fold	–

Target: T2, human FcγRIIb receptor protein (R&D …)
Experiment: SPR (Biacore)

Binder	Fold FcγRIIb
B1	1.33 fold
B2	4.45 fold
B3	0.803 fold
B4	110 fold
B5	3.6 fold
B7	40.5 fold
B8	84.8 fold
B9	0.191 fold
B10	19.8 fold
B11	428 fold
B12	111 fold
B13	43.1 fold
B14	1.91 fold
B18	1.02 fold
B15	21.7 fold
B16	0.843 fold
B17	149 fold
B19	344 fold

Target: T3, FcγRIIaR
Experiment: SPR (Biacore)

Binder	Fold FcγRIIaR
B1	1.6 fold
B2	8.99 fold
B3	0.688 fold
B4	29.9 fold
B5	4.29 fold
B6	0.35 fold
B7	61.5 fold
B8	26.7 fold
B9	0.704 fold
B10	3.27 fold
B11	416 fold
B12	120 fold
B13	122 fold
B14	3.13 fold
B18	2.33 fold
B15	12.7 fold
B16	0.609 fold
B17	59.9 fold
B19	253 fold
